From patent publication US10654939 (BEIJING MABWORKS BIOTECH, dated 2020)

B1: 50F6 (mouse monoclonal antibody) (antibody, V domains shown)
VH: QVQLEQSGDDLVKPGASVKLSCKASGYTFTTYWINWIKQRPGQGLEWIGRISPGSGSTHYNEMFKGKATLTVDTSSSTAYIQLSSLSSEDSAVYFCTRNDYWGQGTTLTVSS
VL: DIVLTQSPLSLPVSLGDQASISCRSSQSIVNSNGNTYLEWYLQKPGQSPKLLIYKVSNRFSGVPDRFSGSGSGTDFTLKISRVEAEDLGVYYCFQGSHVPLTFGAGTKLELK
B2: 92F6 (mouse monoclonal antibody) (antibody, V domains shown)
VH: QVQLEQSGAEVVKPGASVKVSCTASGFNIKDTYMHWVKQRPEQGLEWIGRIDPANGNTNYDPKFQGKATITADTSSNTGYLQLSSLTSEDTAVYYCSRWGYDWYFDVWGAGTSVTVSS
VL: DIVITQSTAIMSASPGEKVTITCSASSSVSYIHWFQQKPGTSPKLWIYTTANLASGVPARFSGSGSGTSYSLTISRMEAEDAATYYCQQRSNYPFTFGSGTKLEIK
B3: 77D9 (mouse monoclonal antibody) (antibody, V domains shown)
VH: QVKLEESGGGLVKPGGSLKLSCAASGFTFRNYAMSWVRQSPGERLEWVAEVSGSGYYTYYPDTVTGRFTISRDNANNTLYLEVSSLRSEDTAMYYCTSRAYWGQGTLVTVSA
VL: IVMTQSPTLSLPVSLGDQASISCRSSQSIVLTNGNTYLEWYLQRPGQSPKLLIYKVSNRFSGVPDRFSGSGSGTDFTLKISRVEAEDLGVYYCFQGSHVPYTFGGGTKLEIK
B4: 142F7 (mouse monoclonal antibody) (antibody, V domains shown)
VH: EVQLEQSGAELVRPGTSVKVSCKASGYAFTNYLIEWGIQRPGQGLEWIGVINPGTGGTNYNEKFKDKATLTTDKSSSTAYMQLSSLTSDDSAVYFCARGGSGFAYWGQGTLVTVSA
VL: DIVLTQTTSSLSASLGDRVTISCRASQDINNYLNWYQQKPDGTVKLLIYYTSRLHSGVPSRFSGSGSGTDYSLTISNLEQEDIATYFCQQGNTLPWTFGGGTKLEIK
B5: 29A10 (mouse monoclonal antibody) (antibody, V domains shown)
VH: QVKLEQSGGGLVKPGGSLKLSCAASGFTFSHYYMYWVRQTPEKRLEWVATISDAGSYTYYSDSVKGRFTISRDNAKNNLYLQMSSLKSDDTAMYFCARTYYRGDGGYWFFDVWGAGTAVTVSS
VL: DIVITQSTSSLAVSVGEKVTMSCESSQSLLYSSNQKNYLAWYQQKPGQSPKLLIYWASTRESGVPDRFTASGSGTDFTLTISSVKAEDLAVYYCQQYYRSPLTFGAGTKLELK
B6: 7B4 (mouse monoclonal antibody) (antibody, V domains shown)
VH: EVQLQESGPGLVKPSQSLSLTCSVTGYSITTNYYWNWIRQFPGNKLEWMGYIKYDGSNNYNPSLKNRISITRDTSKNQFFLKLNSVTTEDTATYYCARLDYWGQGTSVTVSS
VL: DIVLTQSPLSLPVSLGDQASISCRSSQSLENSNGNTFLNWFLQKPGQSPQLLIYKVSNRFSGVLDRFSGTGSGTDFTLTISRVEAEDLGVYFCLQVTHVPFTFGSGTKLEIK
B7: 13A2 (mouse monoclonal antibody) (antibody, V domains shown)
VH: EVKLEQSGPGLVKPSQSLSLTCSVTGYSITTNYYWNWIRQFPGNKLEWMGYINYDGSNNYNPSLKNRISITRDTSKNQFFLKLNSVTTEDTATYYCARLDYWGQGTSVTVSS
VL: DIVMTQSPLSLPVSLGDQASISCRSSQSLENSNGNTFLNWFLQKPGQSPQLLIYKVSNRFSGVLDRFSGTGSGTDFTLTISRVEAEDLGVYFCLQVTHVPFTFGSGTKLEIK
B8: 16A6 (mouse monoclonal antibody) (antibody, V domains shown)
VH: EVQLEQSGPGLVKPSQSLSLTCSVTGYSITTNYHWNWIRQFPGNKLEWMGYIKYDGSNNYNPSLKNRISITRDTSKNQFFLKLNSVTTEDTATYYCARLDYWGQGTSVTVSS
VL: DIVLTQSTLSLSVSLGDQASISCRSSQSLENSNGNTFLNWFLQKPGQSPQLLIYKVSNRFSGVLDRFSGTGSGTDLTLTISRVEAEDLGVYFCLQVTHVPFTFGSGTKLEIK

What was measured:
mouse CD40-hFc = biological target: T1, mouse CD40-hFc (mouse, UniProt P27512 20-193); assay: ELISA, muCD40-hFc coated
T1 construct: Bought protein; also called muCD40-hFc

[1] = biological target: T2, human CD40 expressed on cells (human, UniProt P25942 21-277); assay: FACS, HEK293A/humanCD40 cells
T2 construct: also called HEK293A/humanCD40
Procedure: (§1) Example 5 Mouse Anti-CD40 Monoclonal Antibodies Bound to Human and Rhesus CD40 Expressed on HEK293A Cells To further determine whether anti-CD40 antibodies bound to human, monkey or mouse CD40 expressed on HEK293A cells, a cell-based binding assay by FACS was performed using the HEK293A cells stably overexpressing human, monkey or mouse CD40 as generated in Example 1, respectively. Briefly, 10^5 HEK293A cells were seeded into each well of the 96-well plates and serially diluted anti-CD40 antibodies were added to the plates. After incubated at 4° C. for 1 hour, plates were washed 3 times with PBST. Then, an APC coupled Goat Anti-Mouse IgG (BioLegen, US, Cat #: 405308) diluted 500× was added to the plates. After incubation at 4° C. for 1 hour, the plates were washed with PBS for 3 times and then cell fluorescence was monitored using a FACS machine (BD).

[2] = biological target: T3, recombinant rhesus CD40 (ECD)-hFc (rhesus monkey, UniProt P25942 21-193 (human entry)); assay: ELISA, rhCD40(ECD)-hFc coated
T3 construct: Bought protein; also called rhCD40(ECd)-hFc; monkey CD40 (ECD)-hFc
T3 chain: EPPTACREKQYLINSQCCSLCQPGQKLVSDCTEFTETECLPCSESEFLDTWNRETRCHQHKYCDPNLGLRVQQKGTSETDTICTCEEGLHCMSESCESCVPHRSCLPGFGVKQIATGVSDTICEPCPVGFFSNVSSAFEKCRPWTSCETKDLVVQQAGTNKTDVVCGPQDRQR
Procedure: (§2) ELISA plates were coated with 500 ng/ml human CD40 (ECD)-his (Sino Biological, CN, Cat #: 10774-H08H) at 4° C. overnight. The wells were blocked with 200 μl of blocking buffer (PBS containing 1% BSA, 1% goat serum, and 0.05% Tween 20) for 2 hours at room temperature, and then 100 μl of serially diluted anti-CD40 antibodies (starting from 40000 ng/ml) were added to each well and incubated for 1 hour at RT. Plates were washed for 3 times with PBST (PBS+0.05% Tween 20), added with Goat-anti-mouse IgG-HRP (Simga, US, Cat #: A9309-1 ml) diluted 5000×, and incubated for 1 hour at RT. Plates were developed with freshly prepared Ultra-TMB (BD, US, Cat #: 555214) for 5 minutes at RT. Absorbance was read on a SpectraMax® i3X (Molecular Devies, US) at 450 nm.
Species-cross-reactivity of the 20 CD40 mAbs to monkey or mouse CD40 was further assessed by direct ELISA. Briefly, 500 ng/ml monkey CD40 (ECD)-hFc (Sino Biological, CN, Cat #: 90097-C02H) or mouse CD40-hFc (Sino Biological, CN, Cat #: 50324-M03H) was coated on 96-well ELISA plates followed by incubation with 100 μl of serially diluted anti-CD40 antibodies (starting from 40000 ng/ml). Goat anti-mouse IgG conjugated with HRP (Sigma, US, Cat #: A9309-1ml) was used then.

[3] = biological target: T4, mouse CD40 expressed on HEK293A cells (mouse, UniProt P27512 20-289); assay: FACS, HEK293A/mouseCD40 cells
T4 construct: also called HEK293A/mouseCD40

[4] = biological target: T2, human CD40 expressed on cells; assay: cell-based or functional assay
[5] = biological target: T5, rhesus CD40 expressed on HEK293A cells (rhesus monkey, UniProt P25942 21-277 (human entry)); assay: FACS, HEK293A/rhesusCD40 cells
T5 construct: also called HEK293A/rhesusCD40
T5 chain: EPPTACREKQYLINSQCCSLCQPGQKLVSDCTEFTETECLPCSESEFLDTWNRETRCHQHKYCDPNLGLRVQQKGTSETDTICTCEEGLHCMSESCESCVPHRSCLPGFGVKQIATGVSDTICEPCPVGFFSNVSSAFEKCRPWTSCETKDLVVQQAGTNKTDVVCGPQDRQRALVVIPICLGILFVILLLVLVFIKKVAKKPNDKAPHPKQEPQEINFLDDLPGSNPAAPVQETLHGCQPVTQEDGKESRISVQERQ
Procedure: as §1

[6] = biological target: T6, recombinant human CD40 (ECD)-his (human, UniProt P25942 21-193); assay: ELISA, hCD40(ECD)-his coated
T6 construct: Bought protein; also called hCD40(ECD)-his; TNFRSF5
Procedure: as §2

T1 sequence (P27512 20-193): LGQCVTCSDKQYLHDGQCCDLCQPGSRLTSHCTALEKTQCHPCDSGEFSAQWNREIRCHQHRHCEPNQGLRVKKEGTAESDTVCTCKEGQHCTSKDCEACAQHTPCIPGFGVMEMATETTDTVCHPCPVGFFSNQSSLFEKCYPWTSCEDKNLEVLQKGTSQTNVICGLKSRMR
T6 sequence (P25942 21-193): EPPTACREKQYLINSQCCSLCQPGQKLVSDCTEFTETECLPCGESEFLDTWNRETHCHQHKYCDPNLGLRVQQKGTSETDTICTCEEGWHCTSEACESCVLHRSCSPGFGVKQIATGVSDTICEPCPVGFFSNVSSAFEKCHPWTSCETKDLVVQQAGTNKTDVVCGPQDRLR
T4 sequence (P27512 20-289 limits assumed): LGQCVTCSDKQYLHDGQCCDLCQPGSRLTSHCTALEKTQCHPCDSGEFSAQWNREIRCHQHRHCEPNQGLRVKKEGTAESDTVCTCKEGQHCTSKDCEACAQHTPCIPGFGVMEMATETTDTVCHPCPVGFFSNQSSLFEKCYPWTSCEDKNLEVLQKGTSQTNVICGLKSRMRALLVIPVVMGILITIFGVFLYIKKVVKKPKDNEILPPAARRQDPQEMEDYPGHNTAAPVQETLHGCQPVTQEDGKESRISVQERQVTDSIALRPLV
T2 sequence (P25942 21-277 limits assumed): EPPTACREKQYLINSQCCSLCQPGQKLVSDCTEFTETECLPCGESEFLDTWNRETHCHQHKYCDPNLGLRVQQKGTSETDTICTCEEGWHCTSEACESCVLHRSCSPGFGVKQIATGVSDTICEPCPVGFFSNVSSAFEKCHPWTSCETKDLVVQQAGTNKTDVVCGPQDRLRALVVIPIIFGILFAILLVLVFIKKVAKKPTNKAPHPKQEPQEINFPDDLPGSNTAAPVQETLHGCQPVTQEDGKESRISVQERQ

Row | Binder | binding result (mouse CD40-hFc) | EC50 [1] [mg/L] | EC50 [2] [mg/L] | binding result [3] | HEK Blue EC50 [4] [mg/L] | EC50 [5] [mg/L] | EC50 [6] [mg/L]
1 | B1 | no binding | 0.134 | 0.016 | no binding | 0.0422 | 0.137 | 0.0155
2 | B2 | no binding | 0.0779 | 0.0365 | no binding | 0.264 | 0.13 | 0.0291
3 | B3 | no binding | 0.033 | 0.0206 | no binding | 0.0223 | 0.117 | 0.0214
4 | B4 | no binding | 0.0155 | 0.0201 | no binding | 0.0648 | 0.0807 | 0.0171
5 | B5 | no binding | 0.203 | 0.0302 | no binding | 0.14 | 0.184 | 0.0318
6 | B6 | no binding | 0.0101 | 0.0152 | no binding | 0.0261 | 0.0159 | 0.0153
7 | B7 | no binding | 0.0485 | 0.0141 | no binding | 0.0126 | 0.0843 | 0.0207
8 | B8 | no binding | 0.0682 | 0.0129 | no binding | 0.0114 | 0.044 | 0.0131
